Measured values: patent publication US20180022822A1, “NOVEL ANTI-FIBROBLAST ACTIVATION PROTEIN (FAP) BINDING AGENTS AND USES THEREOF” (Mabimmune Diagnostics AG, priority 2016, published 2018)

What was measured:
[1] = target: T1, captured FAP (sFAP) (Homo sapiens, UniProt Q12884); test: capture ELISA, FAP captured via his-tag with coated anti-His antibody; format: binding; details: ELISA, varying antibody concentrations
T1 sequence (Q12884 1-760): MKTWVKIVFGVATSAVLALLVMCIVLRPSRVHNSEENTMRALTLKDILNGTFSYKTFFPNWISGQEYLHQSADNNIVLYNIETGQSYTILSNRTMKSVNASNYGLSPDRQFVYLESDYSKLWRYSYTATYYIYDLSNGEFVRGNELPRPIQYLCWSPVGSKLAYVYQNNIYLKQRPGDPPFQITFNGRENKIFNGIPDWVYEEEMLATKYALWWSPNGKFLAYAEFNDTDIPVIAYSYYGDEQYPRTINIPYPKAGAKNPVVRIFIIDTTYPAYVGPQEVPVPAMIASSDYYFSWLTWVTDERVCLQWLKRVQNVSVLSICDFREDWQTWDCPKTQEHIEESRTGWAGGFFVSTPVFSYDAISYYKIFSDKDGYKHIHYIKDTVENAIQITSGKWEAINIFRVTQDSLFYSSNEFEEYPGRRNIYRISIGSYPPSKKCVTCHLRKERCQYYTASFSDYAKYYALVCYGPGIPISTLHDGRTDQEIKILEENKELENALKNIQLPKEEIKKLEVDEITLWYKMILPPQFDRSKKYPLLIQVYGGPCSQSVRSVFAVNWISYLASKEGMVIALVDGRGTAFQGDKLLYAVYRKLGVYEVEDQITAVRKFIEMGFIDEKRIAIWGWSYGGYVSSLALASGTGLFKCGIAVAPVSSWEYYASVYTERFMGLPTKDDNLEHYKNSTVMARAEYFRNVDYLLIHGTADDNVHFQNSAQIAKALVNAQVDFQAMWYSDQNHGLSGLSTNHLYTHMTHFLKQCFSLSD
Method: (§1) ELISA assays were performed with varying antibody concentrations to validate the binding of the exemplary antibodies of the present invention to FAP and to be able to determine their half maximal effective concentration (EC50). For the exemplary recombinant human NI-206-18H2, NI-206-20A8, NI-206-6D3, ‘NI-206-14C5, NI-206-34C11, NI-206.82C2, NI-206.59B4, NI-206.22F7, NI-206.27E8, NI-206.12G4 and NI-206.17A6 antibodies, 96-well microplates (Costar, Corning, USA) were coated with FAP, with a mixture of the 3 peptides or with BSA (Sigma-Aldrich, Buchs, Switzerland) diluted to a concentration of 5 μg/ml in carbonate ELISA coating buffer (15 mM Na2CO3, 35 mM NaHCO3, pH 9.4) for the direct ELISA. For the capture ELISA, the microplates were coated with mouse anti-His monoclonal antibody (Clontech) diluted to a concentration of 3 μg/ml in PBS, the plates were then blocked, FAP or BSA were diluted to a concentration of 2 μg/ml in PBS and added to the plates to be captured. The binding efficiency of the antibodies was then tested.
(§2) The EC50 values were estimated by a non-linear regression using GraphPad Prism (San Diego, USA) software. […] The binding of NI-206.12G4 towards sFAP was not tested.

[2] = target: T2, directly coated FAP (FAP) (Homo sapiens, UniProt Q12884); test: direct ELISA on directly coated FAP; format: binding; details: ELISA, varying antibody concentrations
T2 sequence (Q12884 1-760): T1 sequence (Q12884 1-760)
Method: as §1, §2

[3] = system: directly coated FAP peptides mixture (cFAP); test: direct ELISA on coated mixture of FAP peptides; format: binding, human; details: peptides 378-392, 622-636, 721-736
Method: as §1, §2

[4] = target: T3, BSA (Bos taurus, UniProt P02769); test: ELISA control binding to BSA; parameters: species or system bovine
T3 construct: purchased Sigma-Aldrich
T3 sequence (P02769 25-607): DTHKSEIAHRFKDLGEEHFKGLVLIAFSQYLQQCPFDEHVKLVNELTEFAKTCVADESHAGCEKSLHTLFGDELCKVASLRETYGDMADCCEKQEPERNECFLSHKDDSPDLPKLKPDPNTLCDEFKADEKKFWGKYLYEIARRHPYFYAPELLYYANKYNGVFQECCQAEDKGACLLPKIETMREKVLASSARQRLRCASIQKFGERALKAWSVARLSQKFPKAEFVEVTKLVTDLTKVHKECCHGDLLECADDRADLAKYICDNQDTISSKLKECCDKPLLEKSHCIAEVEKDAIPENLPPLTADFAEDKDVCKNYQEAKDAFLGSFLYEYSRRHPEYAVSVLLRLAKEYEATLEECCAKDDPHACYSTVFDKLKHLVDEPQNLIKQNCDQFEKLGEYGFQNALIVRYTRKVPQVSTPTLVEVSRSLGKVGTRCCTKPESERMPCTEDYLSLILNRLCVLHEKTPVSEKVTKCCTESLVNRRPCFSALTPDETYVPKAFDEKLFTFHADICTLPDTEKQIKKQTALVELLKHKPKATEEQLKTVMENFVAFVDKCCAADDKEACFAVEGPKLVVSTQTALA
Method: as §1

[5] = target: T4, recombinant human FAP (sFAP, FAP) versus CD26 and unrelated human antigens (A-N) (Homo sapiens, UniProt Q12884); test: binding specificity ELISA against FAP versus unrelated human antigens; details: detection antibody at 20, 4 and 0.8 nM
T4 sequence (Q12884 26-760 limits assumed): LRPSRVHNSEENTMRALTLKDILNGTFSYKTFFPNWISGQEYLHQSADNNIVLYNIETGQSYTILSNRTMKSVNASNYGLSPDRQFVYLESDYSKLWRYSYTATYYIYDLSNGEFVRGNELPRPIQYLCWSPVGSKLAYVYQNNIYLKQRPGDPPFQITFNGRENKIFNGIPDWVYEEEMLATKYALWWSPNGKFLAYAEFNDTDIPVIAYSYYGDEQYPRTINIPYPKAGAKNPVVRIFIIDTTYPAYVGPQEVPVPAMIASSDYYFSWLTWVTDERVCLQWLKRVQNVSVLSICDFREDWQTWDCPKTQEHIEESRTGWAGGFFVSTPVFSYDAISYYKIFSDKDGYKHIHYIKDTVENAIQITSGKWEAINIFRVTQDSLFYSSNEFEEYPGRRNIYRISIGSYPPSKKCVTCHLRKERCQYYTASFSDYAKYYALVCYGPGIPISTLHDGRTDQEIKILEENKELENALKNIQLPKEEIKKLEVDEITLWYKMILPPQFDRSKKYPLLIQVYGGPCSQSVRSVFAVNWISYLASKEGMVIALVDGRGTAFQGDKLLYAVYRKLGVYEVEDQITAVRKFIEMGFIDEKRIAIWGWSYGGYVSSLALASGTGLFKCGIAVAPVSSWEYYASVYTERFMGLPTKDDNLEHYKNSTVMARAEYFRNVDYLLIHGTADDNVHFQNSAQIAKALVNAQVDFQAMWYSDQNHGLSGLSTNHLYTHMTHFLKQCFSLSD
Method: A mouse anti-6×-histidine tag antibody (Clonetech) was coated at a concentration of 3 μg/ml in PBS to a 96 well ELISA plate, the plates were then blocked with 5% BSA in PBS, and enzymatically active recombinant human FAP with an N-terminus 6× histidine tag was added to the plates to be captured. The binding efficiency of NI-206.82C2, NI-206.18H2, NI-206.20A8 and NI-206.6D3 (at 20 nM, 4 nM, and 0.8 nM) against sFAP and of NI-206.18H2, NI-206.20A8 and NI-206.6D3 against FAP as well was then tested by 1 hour incubation, followed by washing with PBS and detection with an HRP-labelled goat anti-human antibody (Jackson Immunoresearch) using a colormetric assay. To assess NI-206.82C2, NI-206.18H2, NI-206.20A8 and NI-206.6D3 binding other targets, recombinant human CD26 (only in case of NI-206.82C2) and fourteen other unrelated recombinant human proteins (A-N) were individually added to a 96-well ELISA plate in triplicate, and the binding efficacy of NI-206.82C2 was evaluated. (FIG. 7A to D)

binding to the captured FAP [1]: binds less efficiently | binding to the directly coated FAP [2]: binds less efficiently | EC50 to the directly coated FAP peptides mixture (cFAP) [3]: did not show any binding | binding to BSA [4]: does not bind | colorimetric ELISA signal against FAP versus panel of unrelated human antigens [5]: significantly greater
B1: NI-206.20A8: human-derived recombinant anti-FAP antibody; VH SEQ ID NO: 45, VL SEQ ID NO: 47 (antibody, listed as Homo sapiens, V domains shown)
VH: EVQLVESGGGLVQPGGSLKLSCAGSGLDLSASAVHWVRQASGKGLEWIGRIRSKPNHYATTYLASVRGRFILSRDDSENTAYLQMNSLRTEDTAVYYCRIGILNSDHWGRGTLVTVSS
VL: QSVLTQPPSASGTPGQTVIISCSGSSSNLGRKTLNWYQQLPGAAPKLLIFKNDQRASGVPDRFSASKSGTSASLTISGLQSDDEADYYCGTWDDSLDNWVFGGGTKVTVL
